Measurements reported in publication PMC6825195.

What was measured:
[1] = biological target: apoptotic protease-activating factor 1 (mouse (endogenous in Cytc knockout embryonic fibroblasts)) (UniProt O88879)
[2] = biological target: cytochrome c oxidase, regulatory competent, from bovine liver (bovine)

Sequence of UniProt O88879 (O88879 whole entry): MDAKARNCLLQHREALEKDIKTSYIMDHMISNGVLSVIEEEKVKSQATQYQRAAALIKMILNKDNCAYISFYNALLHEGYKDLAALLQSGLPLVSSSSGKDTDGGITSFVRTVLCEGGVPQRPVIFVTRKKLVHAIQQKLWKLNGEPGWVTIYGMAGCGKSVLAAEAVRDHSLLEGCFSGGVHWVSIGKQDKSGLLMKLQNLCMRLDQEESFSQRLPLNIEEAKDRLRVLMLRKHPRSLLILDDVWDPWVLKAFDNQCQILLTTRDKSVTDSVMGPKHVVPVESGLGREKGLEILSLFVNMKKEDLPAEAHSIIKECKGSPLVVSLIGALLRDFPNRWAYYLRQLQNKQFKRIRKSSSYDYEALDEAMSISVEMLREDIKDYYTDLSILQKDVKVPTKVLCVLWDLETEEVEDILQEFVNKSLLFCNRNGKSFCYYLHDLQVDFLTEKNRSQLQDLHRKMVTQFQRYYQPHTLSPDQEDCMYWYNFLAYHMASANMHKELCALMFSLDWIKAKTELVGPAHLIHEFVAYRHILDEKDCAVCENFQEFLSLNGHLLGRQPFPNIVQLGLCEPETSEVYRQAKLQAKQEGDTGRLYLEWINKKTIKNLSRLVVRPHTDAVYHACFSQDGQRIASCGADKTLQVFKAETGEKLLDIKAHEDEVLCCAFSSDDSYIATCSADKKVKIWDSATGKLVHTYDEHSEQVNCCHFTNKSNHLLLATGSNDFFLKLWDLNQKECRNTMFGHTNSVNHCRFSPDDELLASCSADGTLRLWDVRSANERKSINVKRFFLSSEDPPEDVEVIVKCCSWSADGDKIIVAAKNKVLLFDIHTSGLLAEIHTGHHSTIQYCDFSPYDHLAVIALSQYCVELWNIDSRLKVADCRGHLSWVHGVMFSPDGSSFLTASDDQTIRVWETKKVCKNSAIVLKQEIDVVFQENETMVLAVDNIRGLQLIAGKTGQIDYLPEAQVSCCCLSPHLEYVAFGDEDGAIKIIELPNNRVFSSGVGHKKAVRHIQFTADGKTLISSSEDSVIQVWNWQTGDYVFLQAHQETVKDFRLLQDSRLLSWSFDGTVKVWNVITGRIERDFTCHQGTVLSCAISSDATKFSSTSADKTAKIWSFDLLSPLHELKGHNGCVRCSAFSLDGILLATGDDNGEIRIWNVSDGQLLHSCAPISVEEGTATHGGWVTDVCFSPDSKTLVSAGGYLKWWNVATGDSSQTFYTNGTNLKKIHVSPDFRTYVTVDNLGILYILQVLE

Row | Substance | cell-free caspase-3 activity (DEVD-R110 cleavage) in cytosolic extract of Cytc knockout fibroblasts with 20 µg/mL Cytc, reduction compared to WT (% reduction compared to WT) [1] | apparent Km of Cytc in the reaction with cow liver COX (150 nM; 0-20 µM Cytc; oxygen consumption, polarography, 25 °C) [2] | oxygen consumption rate (turnover) of purified cow liver COX with 0-20 µM Cytc, reduction compared to WT Cytc (% reduction compared to WT) [2]
1 | T58A cytochrome c (from UniProt P62897 1-105) (natural protein) | 50 | 4.5 µM | 
2 | T58I cytochrome c (from UniProt P62897 1-105) (natural protein) | 60 | 2.5 µM | 25
3 | wild-type cytochrome c (rodent somatic) (from UniProt P62897 1-105) (natural protein) |  | 3 µM | 
4 | phosphomimetic T58E cytochrome c (from UniProt P62897 1-105) (natural protein) | 70 | 3 µM | 45
